From article PMC7314969, “Natural Transformation in Deinococcus radiodurans: A Genetic Analysis Reveals the Major Roles of DprA, DdrB, RecA, RecF, and RecO Proteins”

T1: DprA (DrDprA) (Deinococcus radiodurans R1 ATCC 13939, UniProt Q9RY31 1-370)
T1 sequence: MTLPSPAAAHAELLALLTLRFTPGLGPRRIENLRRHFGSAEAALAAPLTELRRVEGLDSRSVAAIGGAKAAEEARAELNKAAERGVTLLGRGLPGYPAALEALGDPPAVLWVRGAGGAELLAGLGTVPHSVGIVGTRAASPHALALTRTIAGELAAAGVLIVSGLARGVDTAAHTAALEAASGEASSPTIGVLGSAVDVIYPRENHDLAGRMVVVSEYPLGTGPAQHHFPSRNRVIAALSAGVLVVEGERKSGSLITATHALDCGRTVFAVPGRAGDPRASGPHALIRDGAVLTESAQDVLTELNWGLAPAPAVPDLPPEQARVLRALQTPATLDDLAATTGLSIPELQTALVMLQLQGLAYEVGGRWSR


molecular target: T1, DprA (DrDprA); assay: fluorescence anisotropy; 2.5 mM Mg2+; apparent Kd; 25 mM NaCl, 20 mM Tris pH 7.5, 2.5 mM MgCl2, 2.5% (v/v) glycerol, 25 nM 5'-fluorescein ssDNA, 20 C; 35-mers of varying GC content (Fig. 5B) also tested, affinity rises with GC, but number, sequences and values not in the material; conditions: protein: recombinant; tags: C-terminal His6; chain copies: 2; label: 5'-fluorescein

| Binder | Kd |
| --- | --- |
| TTTTTTTTTTTTTTTTTTTT (ssDNA) [dT20] | 7500 nM |
| TTTTTTTTTTTTTTTTTTTTTTTTTTTTTTTTTTTTTTTTTTTTTTTTTT (ssDNA) [dT50] | 1200 nM |
| dT100 (ssDNA) DNA: TTTTTTTTTTTTTTTTTTTTTTTTTTTTTTTTTTTTTTTTTTTTTTTTTTTTTTTTTTTTTTTTTTTTTTTTTTTTTTTTTTTTTTTTTTTTTTTTTTTT | 1000 nM |
